This is an account of results in paper PMC5789003, “Structural and functional characterization of shaft, anchor, and tip proteins of the Mfa1 fimbria from the periodontal pathogen Porphyromonas gingivalis” (Scientific Reports, 2018).

B1: Mfa2 (anchor protein of the Mfa1 fimbria), wild type, in P. gingivalis (natural protein)
chain: CDKMIYDNYDDCPRGVYVNFYSQTECAENPSYPAEVARLNVYAFDKDGILRSANVFEDVQLSAAKEWLIPLEKDGLYTIFAWGNIDDHYNIGEIKIGETTKQQVLMRLKQDGKWATNIDGTTLWYATSPVVELKNMEDGADQYIHTRANLREYTNRVTVSVDSLPHPENYEIKLASSNGSYRFDGTVAKADSTYYPGETKVVGDSTCRAFFTTLKLESGHENTLSVTHKPTGREIFRTDLVGAILSSQYAQNINLRCINDFDIRLVAHHCNCPDDTYVVVQIWINGWLIHSYEIEL
modifications: lipidated cysteine (Cys29); disulphide bonds Cys54-Cys285 and Cys298-Cys300
B2: Mfa2 C285A (natural protein)
chain: B1 chain with C257A
notes: source: P. gingivalis Δmfa2Δfim complemented with mfa2C285A, whole cell lysate
B3: Mfa2 C54A (natural protein)
chain: B1 chain with C26A
notes: source: P. gingivalis Δmfa2Δfim complemented with mfa2C54A, whole cell lysate

One may read the stoichiometry N as a count of units in the complex or per binding partner.

Changes are numbered by the printed parent chain. “And” between values parts separate entries of the source, which are not always exact repeats. Identical values can stand only once.

The data set concerns the molecule itself. The data set is described as follows: SDS-PAGE and immunoblot of partially heat-denatured fimbriae (ladder-like pattern). For orientation: Immunoblotting shows a protein as a band on a membrane.
With B1, the “stoichiometry N” value was 2 and 3.

On to B2, for which the “stoichiometry N” value is 3 and 2. Then B3, with 2 and 3.
